Source: patent US5362852A, “Modified peptide derivatives conjugated at 2-hydroxyethylamine moieties” (Pfizer Inc., priority 1991, dated 1994)

Legend:
[1] = target: human CRF receptor (human); test: receptor binding assay on human CRF receptor prepared from cultured SK-N-SH cells
human CRF receptor = target: T1, human CRF receptor (Homo sapiens, UniProt P34998); test: ability to bind to the human CRF receptor (prepared from cultured SK-N-SH cells); type: binding; details: products dissolved in 0.05M sodium phosphate, pH 7.0
T1 construct: human CRF receptor (prepared from cultured SK-N-SH cells); endogenous in cells; host or cells: SK-N-SH cells (human neuroblastoma), receptor preparation
T1 sequence (P34998 24-415): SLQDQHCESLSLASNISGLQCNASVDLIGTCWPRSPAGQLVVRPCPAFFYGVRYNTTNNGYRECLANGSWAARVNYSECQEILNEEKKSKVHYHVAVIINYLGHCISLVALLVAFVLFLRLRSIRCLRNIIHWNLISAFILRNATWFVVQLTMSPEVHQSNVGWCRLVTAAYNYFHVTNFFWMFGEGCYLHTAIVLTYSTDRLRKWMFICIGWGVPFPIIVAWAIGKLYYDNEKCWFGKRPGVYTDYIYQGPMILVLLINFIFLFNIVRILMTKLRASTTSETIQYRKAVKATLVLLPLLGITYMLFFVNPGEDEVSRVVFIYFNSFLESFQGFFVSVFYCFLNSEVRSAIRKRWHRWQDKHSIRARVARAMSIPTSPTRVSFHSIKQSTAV
Procedure: The products were dissolved in 0.05M sodium phosphate, pH 7.0, and tested for their ability to bind to the human CRF receptor (prepared from cultured SK-N-SH cells).

With underivatized CRF [Met^21 O] the IC50 [1] was 5 nM.

For `CC[C@H](C)[C@H](NC(=O)[C@H](CC(=O)O)NC(=O)[C@H](CC(C)C)NC(=O)[C@H](CC(C)C)NC(=O)[C@H](CCCCN)NC(=O)[C@H](CCCNC(=N)N)NC(=O)[C@H](CC(N)=O)NC(=O)[C@H](CO)NC(=O)[C@H](Cc1c[nH]cn1)NC(=O)[C@H](C)NC(=O)[C@H](CCC(N)=O)NC(=O)[C@H](CCC(N)=O)NC(=O)[C@H](C)NC(=O)[C@H](CC(C)C)NC(=O)[C@H](CCC(N)=O)NC(=O)[C@H](CC(=O)O)NC(=O)[C@H](C)NC(=O)[C@H](CCCCN)NC(=O)[C@@H](NC(=O)[C@H](CC[S+](C)[O-])NC(=O)[C@H](CCC(=O)O)NC(=O)[C@H](CC(C)C)NC(=O)[C@@H](NC(=O)[C@H](CCC(=O)O)NC(=O)[C@H](CCCNC(=N)N)NC(=O)[C@H](CC(C)C)NC(=O)[C@H](CC(C)C)NC(=O)[C@H](Cc1c[nH]cn1)NC(=O)[C@H](Cc1ccccc1)NC(=O)[C@@H](NC(=O)[C@H](CC(C)C)NC(=O)[C@H](CC(=O)O)NC(=O)[C@H](CC(C)C)NC(=O)[C@H](CO)NC(=O)[C@@H](NC(=O)[C@@H]1CCCN1C(=O)[C@@H]1CCCN1C(=O)[C@H](CCC(=O)O)NC(=O)[C@H](CCC(N)=O)NC(=O)[C@@H](N)CO)[C@@H](C)CC)[C@@H](C)O)C(C)C)[C@@H](C)O)C(=O)N[C@@H](C)C(N)=O` (stereo partly shown) [CRF [Met^21 O]], the IC50 (human CRF receptor) was 5 nM.

B1: N-terminally biotinylated ovine CRF [Met^21 O] (peptide)
peptide: SQEPPISLDLTFHLLREVLEXTKADQLAQQAHSNRKLLDIA
modifications: N-terminal Ser oxidised by periodate to glyoxylyl (=CH-CO-) and coupled as hydrazone to 6-((biotinoyl)amino)caproic acid hydrazide (biotin-X-hydrazide); Met 21 as the sulfoxide (Met^21 O)
In the case of B1, the IC50 [1] is reported as 5 nM.

B2: Lucifer Yellow conjugate of ovine CRF [Met^21 O] (peptide)
peptide: SQEPPISLDLTFHLLREVLEXTKADQLAQQAHSNRKLLDIA
modifications: N-terminal Ser oxidised by periodate to glyoxylyl (=CH-CO-) and coupled as hydrazone to Lucifer Yellow; Met 21 as the sulfoxide (Met^21 O)
B2 showed an IC50 [1] of 5 nM.
